Paper PMC10778692
Changes are numbered by the printed parent chain. Names may count otherwise. Values belong to the binder of their own block, whether it stands above or below them.

Columns and labels:
L-Malate dehydrogenase = molecular target: T1, L-Malate dehydrogenase (UniProt P00346)
T1 sequence: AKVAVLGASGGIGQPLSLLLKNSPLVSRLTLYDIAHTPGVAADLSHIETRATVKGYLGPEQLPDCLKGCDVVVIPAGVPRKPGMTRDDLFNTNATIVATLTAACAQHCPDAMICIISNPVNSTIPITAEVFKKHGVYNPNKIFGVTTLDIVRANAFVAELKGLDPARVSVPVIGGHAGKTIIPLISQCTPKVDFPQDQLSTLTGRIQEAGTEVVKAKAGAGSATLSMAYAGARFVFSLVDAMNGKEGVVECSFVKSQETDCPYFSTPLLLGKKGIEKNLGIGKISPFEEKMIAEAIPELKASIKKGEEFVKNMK

DTT-induced aggregation of insulin with F113Y (5:1 substrate to sHsp), reduction in the peak level of light scattering at 340 nm (insulin): > 50%
B1: HspB5 F113Y (natural protein)
chain: MDIAIHHPWIRRPFFPFHSPSRLFDQFFGEHLLESDLFPTSTSLSPFYLRPPSFLRAPSWFDTGLSEMRLEKDRFSVNLDVKHFSPEELKVKVLGDVIEVHGKHEERQDEHGYISREFHRKYRIPADVDPLTITSSLSSDGVLTVNGPRKQVSGPERTIPITREEKPAVTAAPKK

heat-induced (55 °C) aggregation of MDH with R116C, reduction of light scatter at 340 nm against substrate alone (L-Malate dehydrogenase): 16%
B2: HspB5 R116C (natural protein)
chain: B1 chain with Y113F, R116C
